Experiments:
[1] = S100A8 proteolysis assay in Capan1 conditioned media (MALDI-TOF/MS); format: in vitro ADME, human; settings: 3 μM S100A8, Capan1 conditioned medium, 24 hours at 37°C, MALDI-TOF/MS low molecular weight spectra
Experimental: To obtain BxPC3 and Capan1 conditioned media (CM), 400,000 cells were cultured (75 cm^2 flasks) for 96 hours in RPMI supplemented with 1% FCS and 0.1% gentamycin. In parallel, Ukrain (Nowicky Pharma, Wien, Austria) treated Capan1 CM were obtained as above, the difference being that Ukrain was added 24 hours after cells had been seeded at the final concentration of 5 μM. Complete culture media maintained in a cell culture incubator for 96 hours (negative control), Capan1 and Ukrain-treated Capan1 CM were centrifuged at 1,500 rpm for 10 min, and then immediately mixed with 3 μM S100A8 or 2.5 μM S100A9 (ProSpec-Tany TechnoGene, Ness Ziona, Israel) and maintained at 37°C overnight before MALDI-TOF/MS analyses. Complete culture media, BxPC3 and Capan1 CM, treated as described above, were incubated at 37°C with 200 μM of the S100A8 1–19 N-terminal aminoacid sequence (NT-S100A8) (Primm, Milano, Italy) for 1, 2, 3, 4, 5, 6, 12 and 24 hours before MALDI-TOF/MS analyses. At least three independent sets of experiments were performed for both assays.
Cell culture media were first desalted and purified by ZipTip C18 pipette tips, following the procedure described in the ZipTip user’s guide. […]

[2] = test system: BxPC3-SMAD4+ IκBα and Akt phosphorylation; assay: Signaling western blot in BxPC3-SMAD4+ cells; format: cell-based, human; settings: BxPC3-SMAD4+ vs BxPC3, 10 min, 10 nM S100A8
Experimental: The pancreatic cancer cell lines used were: Panc1 and Suit2, donated by Prof Aldo Scarpa (University of Verona, Italy); BxPC3, from Dr Andrea Galli (University of Florence, Italy); MiaPaCa2, Capan1 and the human embryonic kidney Hek293 cell lines, supplied by the American Type Culture Collection (Manassas, VA, USA). BxPC3, Capan1 and Panc1 were cultured in RPMI (Gibco/BRL, Gaithhersburg, MD, USA) supplemented with 10% (BxPC3 and Panc1) and 20% (Capan1) fetal calf serum (FCS) (Gibco/BRL), 1% L-glutamine (Gibco/BRL) and 0.1% gentamycin (Gibco/BRL). MiaPaCa2 and Hek293 were cultured in DMEM (Gibco/BRL) supplemented with 10% FCS, 2% L-glutamine and 0.1% Gentamycin. BxPC3 cells were transfected with the expression vector pBK-cytomegalovirus (CMV)-SMAD4/DPC4, as previously described. One SMAD4/DPC4-expressing clone (BxPC3-SMAD4+) was used for the experiments. Smad4 silencing of MiaPaCa2 cells was performed as previously described.
Five million cells were seeded in Petri dishes (ø 10 cm) and cultured for 24 hours in their respective complete media prior to starting the experiments. […] Lysates were centrifuged for 10 min at 14,000 rpm at 4°C and, in the supernatants, total proteins were measured using the Bio-Rad protein assay (Bio-Rad Laboratories, Milano, Italy). […]

Substance: S100A8: inflammatory calcium binding protein S100A8 (ProSpec-Tany TechnoGene)
- fragmentation of S100A8 in conditioned medium [1]: a new peptide was found at 2280 m/z
- IκBα phosphorylation in Smad4 expressing BxPC3 [2]: reduced IκBα phosphorylation

Reference: paper PMC4108065, “Inflammation and pancreatic cancer: molecular and functional interactions between S100A8, S100A9, NT-S100A8 and TGFβ1” (Cell Communication and Signaling : CCS, 2014)
